Where a chain is given by its changes, count along the chain named. Numbers in names are those of the source.
Experiments:
[1] = tested on: E. coli EJ801 (ΔponB-ponA^ts); assay: complementation assay of E. coli EJ801 (ΔponB-ponA^ts); format: cell-based, Escherichia coli; conditions: 42 °C, 4 h, plasmids carrying ponB or mutants, LB 10 g/liter or low salt 0.5 g/liter comparable
Procedure: To test the activity of the PBP1b mutants in vivo, we tested their ability to complement E. coli strain EJ801, which lacks PBP1b and has a thermosensitive PBP1a ([33]). EJ801 cells were transformed with the corresponding plasmids and grown in LB at 30 °C with 50 µg/ml kanamycin. The preculture was then diluted in 30 ml of fresh LB ([…] NaCl) or LB with […] NaCl medium to an A600nm value of 0.04 and grown at 30 °C until A600nm = 0.1–0.3, and the absorbance of the culture was monitored for 4 h at 42 °C.

[2] = tested on: E. coli EJ801 (ΔponB-ponA^ts); assay: microscopy of EJ801 cells, cell morphology and length; format: cell-based, Escherichia coli; parameters: cell length L: unit not given here
Procedure: Samples were taken from the complementation cultures (42 °C) at different time (1-h intervals), and the cells were fixed as described ([63]). Photographs were taken with a cooled AxioCam MRm (Zeiss) mounted on a Zeiss Axio Imager. Z1 microscope, and the images were acquired in phase-contrast mode using the AxioVision Rel. 4.5 (Zeiss) software. The cell morphologies analysis were determined using ImageJ software (RRID:SCR_003070) running under plugin ObjectJ (RRID:SCR_019190).

PBP1b^R141A/R397A = format: biochemical, Escherichia coli; conditions: dansyl-lipid II, continuous fluorescence assay; means ± S.D. of three experiments
Procedure: The error bars represent the values as means ± S.D. of three experiments.
(§3) The GTase activity assays with dansyl-lipid II as substrate were performed in a medium binding black 96-well microplate (Greiner Bio One) as described ([57]). The samples contained 10 μM dansyl-lipid II, 50 mM HEPES-NaOH, pH 7.5, 200 mM NaCl, 10 mM CaCl2, 0.085% of decyl-PEG, 20% of DMSO, and 1 unit of N-acetylmuramidase of Streptomyces globisporus (Sigma). […] The reactions were initiated by the addition of 30 nM PBP1bγ (100 nM for PBP1a) and monitored by following the fluorescence decrease over 20 min at 30 °C using an Infinite 200 PRO microplate reader (Tecan, Männedorf, Switzerland) with excitation wavelength at 340 nm and emission at 520 nm.
activity of the PBP1bWT and PBP1bR141A-R397A was monitored in the presence or the absence of LpoB by
continuous fluorescence assay using dansyl-lipid II (LII) as substrate. The error bars represent the values

[3] = thermal stability of PBP1b^R141A-R397A at 42 °C: GTase activity; format: biochemical; conditions: 1 h at 42 °C versus 30 °C, dansyl-lipid II, mean ± s.d. of three experiments (Fig. S1A)
Procedure: (§1) Figure S1. Stability of the double mutant PBP1bR141A-R397A at 42°C. (A) The purified protein was incubated at 30°C or 42°C for 1 h and its GTase activity was monitored at the same temperature by continuous fluorescence assay using dansyl -lipid II (LII) as substrate. The error bars represent the values as mean ± s.d. of three experiments. (B) after 1h at 30°C or 42°C the protein ( 7 µg) was labelled with Bocillin FL (50 µM) for 30 min at the same temperature and analyzed by SDS-PAGE followed by fluorescence imaging (right) and Coomassie blue staining (left). 1bWT and 1bRR depict PBP1b wild-type and PBP1b double mutant R141A-R397A, respectively. M, Molecular mass marker. […]

[4] = thermal stability of PBP1b^R141A-R397A at 42 °C: Bocillin binding; conditions: 1 h at 42 °C versus 30 °C, 7 µg protein, Bocillin FL 50 µM 30 min, SDS-PAGE (Fig. S1B)
Procedure: as §1

TPase domain of PBP1b = conditions: 2.0 mM S2d, 1.2 μM PBP1b, FtsN 2 μM, 50 mM phosphate pH 7.0, 37 °C, 3.2 mM 4,4′-dithiodipyridine, absorbance 330 nm; representative of three independent experiments
Procedure: The activity of the TPase domain of PBP1b was measured in the presence of S2d (analog of the peptide moiety) as a mimic of donor substrates as previously described ([58], [59]). The assay was performed in a UV-Star 96-well microplate (Greiner Bio One) at 37 °C in the presence of 50 mM phosphate buffer, pH 7.0, 2.0 mM S2d, 3.2 mM 4,4′-dithiodipyridine, and 1.2 μM PBP1b. The absorbance at 330 nm was monitored with an Infinite M200 Pro microplate reader (Tecan, Männedorf, Switzerland). FtsN was used at 2 μM to test its effect on the PBP1b activity.

PBP1b [5] = molecular target: T1, PBP1b (Escherichia coli, UniProt P02919); conditions: peptide versus full-length FtsN protein; 10 μM dansyl-lipid II, 30 nM PBP1bγ, pH 7.5, 30 °C
T1 sequence (P02919 1-799 isoform P02919-2): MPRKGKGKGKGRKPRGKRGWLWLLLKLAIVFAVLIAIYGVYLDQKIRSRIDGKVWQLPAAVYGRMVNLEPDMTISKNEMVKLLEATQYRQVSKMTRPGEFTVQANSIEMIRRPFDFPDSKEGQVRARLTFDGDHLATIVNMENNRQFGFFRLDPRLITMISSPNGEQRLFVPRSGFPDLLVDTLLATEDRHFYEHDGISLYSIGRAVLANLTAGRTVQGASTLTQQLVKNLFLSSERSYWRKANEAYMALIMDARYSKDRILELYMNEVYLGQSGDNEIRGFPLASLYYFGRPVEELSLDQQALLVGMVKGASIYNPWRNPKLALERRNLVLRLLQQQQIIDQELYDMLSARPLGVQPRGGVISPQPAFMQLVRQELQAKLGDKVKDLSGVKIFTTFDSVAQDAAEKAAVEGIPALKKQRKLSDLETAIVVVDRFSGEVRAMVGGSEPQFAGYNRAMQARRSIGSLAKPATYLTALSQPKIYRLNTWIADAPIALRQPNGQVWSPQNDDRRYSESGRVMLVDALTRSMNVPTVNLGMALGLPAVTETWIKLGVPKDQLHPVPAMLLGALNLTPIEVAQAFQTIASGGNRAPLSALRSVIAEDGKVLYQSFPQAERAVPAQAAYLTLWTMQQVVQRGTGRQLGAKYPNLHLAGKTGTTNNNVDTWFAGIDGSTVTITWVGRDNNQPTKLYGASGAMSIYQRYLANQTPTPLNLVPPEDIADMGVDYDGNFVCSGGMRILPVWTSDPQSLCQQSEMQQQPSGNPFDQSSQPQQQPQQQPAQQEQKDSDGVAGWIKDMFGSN
Procedure: as §3

PBP3 = conditions: cited from earlier work
Text: (§2) Bacteria generally have at least one bifunctional (GTase/TPase) PBP of class A and one monofunctional (TPase only) PBP of class B ([2], [13]). E. coli contains three aPBPs: PBP1a, 1b, and 1c, and two bPBPs: PBP2 and PBP3, the latter being involved in cell elongation and division, respectively ([14]). PBP1a and PBP1b are major PG synthases and at least one of them is required for cell viability ([15]).

FtsBLQ = conditions: cited from earlier work
Text: In contrast, no significant change in the FA sig ...

PBP1b [6] = molecular target: T1, PBP1b; conditions: compared with the WT protein; cited from earlier work
Text: The stimulation of PBP1b in vitro by FtsN is well-established ([5], [28]).

PBP1b [7] = molecular target: T1, PBP1b; conditions: cited from earlier work
Text: as §2

E. coli = conditions: residue change W83L; cited from earlier work

B1: PBP1b^R141A/R397A (protein)
chain: MAGNDREPIGRKGKPTRPVKQKVSRRRYEDDDDYDDYDDYEDEEPMPRKGKGKGKGRKPRGKRGWLWLLLKLAIVFAVLIAIYGVYLDQKIRSRIDGKVWQLPAAVYGRMVNLEPDMTISKNEMVKLLEATQYRQVSKMTAPGEFTVQANSIEMIRRPFDFPDSKEGQVRARLTFDGDHLATIVNMENNRQFGFFRLDPRLITMISSPNGEQRLFVPRSGFPDLLVDTLLATEDRHFYEHDGISLYSIGRAVLANLTAGRTVQGASTLTQQLVKNLFLSSERSYWRKANEAYMALIMDARYSKDRILELYMNEVYLGQSGDNEIRGFPLASLYYFGRPVEELSLDQQALLVGMVKGASIYNPWRNPKLALERRNLVLRLLQQQQIIDQELYDMLSAAPLGVQPRGGVISPQPAFMQLVRQELQAKLGDKVKDLSGVKIFTTFDSVAQDAAEKAAVEGIPALKKQRKLSDLETAIVVVDRFSGEVRAMVGGSEPQFAGYNRAMQARRSIGSLAKPATYLTALSQPKIYRLNTWIADAPIALRQPNGQVWSPQNDDRRYSESGRVMLVDALTRSMNVPTVNLGMALGLPAVTETWIKLGVPKDQLHPVPAMLLGALNLTPIEVAQAFQTIASGGNRAPLSALRSVIAEDGKVLYQSFPQAERAVPAQAAYLTLWTMQQVVQRGTGRQLGAKYPNLHLAGKTGTTNNNVDTWFAGIDGSTVTITWVGRDNNQPTKLYGASGAMSIYQRYLANQTPTPLNLVPPEDIADMGVDYDGNFVCSGGMRILPVWTSDPQSLCQQSEMQQQPSGNPFDQSSQPQQQPQQQPAQQEQKDSDGVAGWIKDMFGSN
[1]
  restoration of growth of EJ801 at the nonpermissive temperature: unable to rescue E. coli EJ801 at 42 °C
[2]; EJ801 after 1 h at 42 °C, n = 250, phase contrast, ImageJ/ObjectJ
  cell length L: 6.14 ± 1.84
[2]; EJ801 at 42 °C (double mutant: after 1 h)
  cell phenotype: mild elongated phenotype
PBP1b^R141A/R397A
  GTase activity of mutant compared with WT protein: minor or no difference in the GTase activity compared with the WT protein
[3]
  GTase activity after incubation at 42 °C: not affected
[4]
  Bocillin-binding activity after incubation at 42 °C: not affected

B2: FtsN: full-length E. coli cell division protein FtsN (protein)
chain: MAQRDYVRRSQPAPSRRKKSTSRKKQRNLPAVSPAMVAIAAAVLVTFIGGLYFITHHKKEESETLQSQKVTGNGLPPKPEERWRYIKELESRQPGVRAPTEPSAGGEVKTPEQLTPEQRQLLEQMQADMRQQPTQLVEVPWNEQTPEQRQQTLQRQRQAQQLAEQQRLAQQSRTTEQSWQQQTRTSQAAPVQAQPRQSKPASSQQPYQDLLQTPAHTTAQSKPQQAAPVARAADAPKPTAEKKDERRWMVQCGSFRGAEQAETVRAQLAFEGFDSKITTNNGWNRVVIGPVKGKENADSTLNRLKMAGHTNCIRLAAGG
modifications: left off: His, end not stated, kept
TPase domain of PBP1b
  effect on TPase activity of PBP1b (S2d hydrolysis): no effect
PBP1b [5]
  concentration required for stimulation of the GTase activity of PBP1b: ~1 µM
PBP3
  effect on the activity of PBP3 (literature): no effect on the activity of PBP3
FtsBLQ
  interaction with FtsBLQ (literature): absence of strong interaction

B3: FtsN^W83L (protein, UniProt P29131 1-319, looked up, variant W83L)
Cell division protein FtsN: B2 chain with W83L
PBP1b [6]
  interaction with PBP1b (literature): reduced compared with the WT protein
PBP1b [7]
  stimulation of PBP1b activity in vitro (literature): less able to stimulate PBP1b activity
  suppression of FtsBLQ-mediated inhibition of PBP1b GTase activity (literature): less able to stimulate PBP1b activity and to suppress FtsBLQ-mediated inhibition of PBP1b GTase activity in vitro
E. coli
  FtsN activity in vivo (literature): impairs FtsN activity in vivo

Reference: paper PMC7939390 (The Journal of Biological Chemistry, 2020)
